The results in this text go back to publication doi:10.1101/2023.01.10.523203 (bioRxiv, 2023).

This series deals with the molecule itself. The series can be described thus: SEC. (In general: SEC sorts molecules by how far they enter the pores of the column.)

Where “and” joins values, the source holds several entries; their conditions need not be identical. Equal values may be shown once.

B1: LZTR1^L580P recombinant protein (LZTR1-Myc-6xHis with p.L580P) (natural protein)
chain: MAGPGSTGGQIGAAALAGGARSKVAPSVDFDHSCSDSVEYLTLNFGPFETVHRWRRLPPCDEFVGARRSKHTVVAYKDAIYVFGGDNGKTMLNDLLRFDVKDCSWCRAFTTGTPPAPRYHHSAVVYGSSMFVFGGYTGDIYSNSNLKNKNDLFEYKFATGQWTEWKIEGRLPVARSAHGATVYSDKLWIFAGYDGNARLNDMWTIGLQDRELTCWEEVAQSGEIPPSCCNFPVAVCRDKMFVFSGQSGAKITNNLFQFEFKDKTWTRIPTEHLLRGSPPPPQRRYGHTMVAFDRHLYVFGGAADNTLPNELHCYDVDFQTWEVVQPSSDSEVGGAEVPERACASEEVPTLTYEERVGFKKSRDVFGLDFGTTSAKQPTQPASELPSGRLFHAAAVISDAMYIFGGTVDNNIRSGEMYRFQFSCYPKCTLHEDYGRLWESRQFCDVEFVLGEKEECVQGHVAIVTARSRWLRRKITQARERLAQKLEQEAAPVPREAPGVAAGGARPPLLHVAIREAEARPFEVLMQFLYTDKIKYPRKGHVEDVLLIMDVYKLALSFQLCRLEQLCRQYIEASVDLQNVPVVCESAARLQLSQLKEHCLNFVVKESHFNQVIMMKEFERLSSPLIVEIVRRKQQPPPRTPLDQPVDIGTSLIQDMKAYLEGAGAEFCDITLLLDGHPRPAHKAILAARSSYFEAMFRSFMPEDGQVNISIGEMVPSRQAFESMLRYIYYGEVNMPPEDSLYLFAAPYYYGFYNNRLQAYCKQNLEMNVTVQNVLQILEAADKTQALDMKRHCLHIIVHQFTKVSKLPTLRSLSQQLLLDIIDSLASHISDKQCAELGADI
What is called stoichiometry N is a count of units in the complex or per binding partner. B1: the “stoichiometry N” value was 6 and 4.
